Source: the supplement of paper PMC10724198
± gives the standard deviation of the averaged measurements.

test system: Saccharomyces cerevisiae; test: protein stability index of tFT-peptide fusion (C-terminal peptide) (PSI (0-1 scale)); higher = more stable (slower turnover); conditions: genetic background: das1 deletion; temperature: 30 C
Description: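 MPS profiling in S. cerevisiae of the yeast C-terminome library: the last 12 aa of each annotated ORF are fused to the C-terminus of a sfGFP-mCherry timer, after a GGGS linker. Cells are FACS-sorted into 8 mCherry/sfGFP bins and deep-sequenced. PSI runs from 0 (unstable) to 1 (stable); wild type and das1Δ backgrounds, two technical replicates each.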

| Sequence | protein stability index |
| --- | --- |
| LKRVVTKAMSSR [SSB1 C-terminal 12 aa] | 0.714 ± 0.012 |
| LKSGEKESNASK [SDC1 C-terminal 12 aa] | 0.678 ± 0.0026 |
| LLCFRPTRGCGP [YCL041C C-terminal 12 aa] | 0.7091 ± 0.0046 |
| LLDAIELYQRHK [HEM4 C-terminal 12 aa] | 0.698 ± 0.017 |
| LLEDLRSRIDLD [MLO50 C-terminal 12 aa] | 0.685 ± 0.048 |
| LLHTVMNENKLP [LST7 C-terminal 12 aa] | 0.716 ± 0.03 |
| LLILLVLFSKFK [VTI1 C-terminal 12 aa] | 0.295 ± 0.02 |
| LMESEREARRLR [RPS28A C-terminal 12 aa] | 0.708 ± 0.01 |
| LMKLFKSSKFSK [GEM1 C-terminal 12 aa] | 0.724 ± 0.024 |
| LMVPDPWYREGN [FAB1 C-terminal 12 aa] | 0.726 ± 0.018 |
| LNDLSNVRHSKT [HER1 C-terminal 12 aa] | 0.6893 ± 0.0035 |
| LNNLSMERSIRL [GIP3 C-terminal 12 aa] | 0.715 ± 0.015 |
| LNRKWYTRFFFP [MNN10 C-terminal 12 aa] | 0.732 ± 0.012 |
| LPIWDPMGALAK [LAP3 C-terminal 12 aa] | 0.703 ± 0.0072 |
| LPKPAGWQNHIG [KTR1 C-terminal 12 aa] | 0.7014 ± 0.0053 |
| LPNTISSETFLK [SCEI C-terminal 12 aa] | 0.661 ± 0.0076 |
| LPQSTLQENQLS [SKN7 C-terminal 12 aa] | 0.706 ± 0.024 |
| LQVSQEFTTKTQ [NUP82 C-terminal 12 aa] | 0.676 ± 0.034 |
| LRIVACNSKKSE [TOA2 C-terminal 12 aa] | 0.673 ± 0.027 |
| LRSCDLKRKSKK [YLR302C C-terminal 12 aa] | 0.678 ± 0.037 |
| LSDLHIKEAKID [OGG1 C-terminal 12 aa] | 0.7101 ± 0.0056 |

| Sequence | protein stability index |
| --- | --- |
| LSDLRAWTLKVA [YDR491C C-terminal 12 aa] | 0.7058 ± 0.0027 |
| LSDYLSHDFASC [YNL040W C-terminal 12 aa] | 0.688 ± 0.011 |
| LSFFGILKYCFL [TSC3 C-terminal 12 aa] | 0.6491 ± 0.0031 |
| LSIAAGVGFALV [GAS1 C-terminal 12 aa] | 0.657 ± 0.007 |
| LSKKTSGTHTTH [YBR182C-A C-terminal 12 aa] | 0.681 ± 0.015 |
| LSQRAWATKKPI [YJL028W C-terminal 12 aa] | 0.696 ± 0.012 |
| LSRYTRVLLMFM [YBR178W C-terminal 12 aa] | 0.632 ± 0.02 |
| LSSVKVRQLRNM [RBH2 C-terminal 12 aa] | 0.681 ± 0.021 |
| LSTWDARTPILD [GPI2 C-terminal 12 aa] | 0.705 ± 0.0016 |
| LTALLETVNKYR [GCG1 C-terminal 12 aa] | 0.7 ± 0.016 |
| LTTISLYLMLKL [YGL262W C-terminal 12 aa] | 0.382 ± 0.021 |
| LVAIDPRSEAYC [YMR324C C-terminal 12 aa] | 0.68838 ± 0.00058 |
| LVKHTYKRSSSS [VBA1 C-terminal 12 aa] | 0.705 ± 0.029 |
| LVSNSDTNIVWP [YMR247W-A C-terminal 12 aa] | 0.68696 ± 0.00059 |
| LVSQRITGPGVF [ASI2 C-terminal 12 aa] | 0.687 ± 0.0099 |
| LWVTLLPEFTNF [YBR121C-A C-terminal 12 aa] | 0.768 ± 0.018 |
| LYFLVKSFLSIV [HMX1 C-terminal 12 aa] | 0.668 ± 0.14 |
| MEDEDMVDVIID [ESC2 C-terminal 12 aa] | 0.689 ± 0.02 |
| MGVVAAVGVALL [ECM33 C-terminal 12 aa] | 0.678 ± 0.019 |
| MHSNFQNLFNLK [CLB5 C-terminal 12 aa] | 0.708 ± 0.026 |
| MKSKKIDIKGQK [THP3 C-terminal 12 aa] | 0.705 ± 0.03 |

| Sequence | protein stability index |
| --- | --- |
| MSLRKYVSVCSM [YHL006W-A C-terminal 12 aa] | 0.5 ± 0.012 |
| MVTNDGFGSTVL [YLR379W-A C-terminal 12 aa] | 0.698 ± 0.013 |
| NDDDEDDDDFFD [SDD2 C-terminal 12 aa] | 0.723 ± 0.015 |
| NDLITYLKKACE [CYC1 C-terminal 12 aa] | 0.68 ± 0.01 |
| NDSDGTILIPDI [ZDS2 C-terminal 12 aa] | 0.6982 ± 0.0057 |
| NDSEPESEYQQE [CUB1 C-terminal 12 aa] | 0.6922 ± 0.0057 |
| NEERINSKIFKS [RCF2 C-terminal 12 aa] | 0.716 ± 0.043 |
| NENDFNFINWEG [FLO8 C-terminal 12 aa] | 0.741 ± 0.037 |
| NENLSNELQPSL [AME1 C-terminal 12 aa] | 0.678 ± 0.009 |
| NEQFDHKFDETL [APL4 C-terminal 12 aa] | 0.726 ± 0.015 |
| NFEKPCLIQDGK [FMP48 C-terminal 12 aa] | 0.717 ± 0.051 |
| NFTIHRPLNNGR [YDL062W C-terminal 12 aa] | 0.731 ± 0.044 |
| NFTTNEYFIHTS [YNL226W C-terminal 12 aa] | 0.7352 ± 0.0013 |
| NGEIMTCWEWKE [HEH2 C-terminal 12 aa] | 0.691 ± 0.034 |
| NGINNSSATYKI [ULA1 C-terminal 12 aa] | 0.7027 ± 0.0063 |
| NGLWEQEKTEKR [YKR041W C-terminal 12 aa] | 0.716 ± 0.025 |
| NGNNVASLNTKK [TAF12 C-terminal 12 aa] | 0.6865 ± 0.0016 |
| NGYFGYAPGHYP [OPT2 C-terminal 12 aa] | 0.6844 ± 0.0056 |
| NILPMTYLLKKK [DPI34 C-terminal 12 aa] | 0.697 ± 0.049 |
| NILVIVYELLLG [YOS1 C-terminal 12 aa] | 0.215 ± 0.023 |
| NINGTTAAVDVN [PAP1 C-terminal 12 aa] | 0.661 ± 0.0093 |

| Sequence | protein stability index |
| --- | --- |
| NKTNNKKKHGKK [CLU1 C-terminal 12 aa] | 0.698 ± 0.044 |
| NLEFETEHNVTN [NDC80 C-terminal 12 aa] | 0.677 ± 0.012 |
| NLELGGLNMDFL [PGD1 C-terminal 12 aa] | 0.7171 ± 0.0022 |
| NLLRFIVGVDVL [YDR426C C-terminal 12 aa] | 0.639 ± 0.0092 |
| NNDDSANDLIDR [CCH1 C-terminal 12 aa] | 0.649 ± 0.013 |
| NNYNLWFRLSSS [ECL1 C-terminal 12 aa] | 0.702 ± 0.027 |
| NPADYLLEFGSG [RTG3 C-terminal 12 aa] | 0.7103 ± 0.0023 |
| NPFEYENFINIE [YOR263C C-terminal 12 aa] | 0.7418 ± 0.0062 |
| NPVGVPNDDHHH [COX4 C-terminal 12 aa] | 0.724 ± 0.0031 |
| NQFSQPPSNVEF [SCD6 C-terminal 12 aa] | 0.684 ± 0.025 |
| NQYANNLNLIDM [YAP1801 C-terminal 12 aa] | 0.694 ± 0.026 |
| NSDRLSPMEIYN [SPO14 C-terminal 12 aa] | 0.7118 ± 0.007 |
| NSGSAATDSPFN [STS1 C-terminal 12 aa] | 0.727 ± 0.013 |
| NSIDIGSRLSLM [PEX1 C-terminal 12 aa] | 0.704 ± 0.0078 |
| NSKVMNIKALDH [MRPL10 C-terminal 12 aa] | 0.6653 ± 0.0031 |
| NSLTSLSIYAFL [YEL018C-A C-terminal 12 aa] | 0.7094 ± 0.0019 |
| NSNKKKGFKSRR [DRS1 C-terminal 12 aa] | 0.682 ± 0.017 |
| NTANRIIEELLK [UBC1 C-terminal 12 aa] | 0.68955 ± 0.00029 |
| NTMGKSGRHNIT [YOR282W C-terminal 12 aa] | 0.6851 ± 0.0044 |
